# Data as given in article PMC9687312.
# Experiments:
# [1] = target: DC-SIGN Biot-ECD (biotinylated extracellular domain of DC-SIGN) (UniProt Q9NNX6); assay: SPR
# [2] = target: MGL Biot-ECD (biotinylated extracellular domain of MGL) (UniProt Q8IUN9); assay: SPR
# Sequence of UniProt Q8IUN9 (Q8IUN9 61-316): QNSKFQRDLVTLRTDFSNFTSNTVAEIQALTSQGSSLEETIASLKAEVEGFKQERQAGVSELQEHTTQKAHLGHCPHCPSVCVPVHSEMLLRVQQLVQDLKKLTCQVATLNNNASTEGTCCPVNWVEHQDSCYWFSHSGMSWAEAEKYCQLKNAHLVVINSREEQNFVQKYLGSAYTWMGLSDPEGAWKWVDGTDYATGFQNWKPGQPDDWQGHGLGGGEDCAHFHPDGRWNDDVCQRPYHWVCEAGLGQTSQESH
# Sequence of UniProt Q9NNX6 (Q9NNX6 59-404): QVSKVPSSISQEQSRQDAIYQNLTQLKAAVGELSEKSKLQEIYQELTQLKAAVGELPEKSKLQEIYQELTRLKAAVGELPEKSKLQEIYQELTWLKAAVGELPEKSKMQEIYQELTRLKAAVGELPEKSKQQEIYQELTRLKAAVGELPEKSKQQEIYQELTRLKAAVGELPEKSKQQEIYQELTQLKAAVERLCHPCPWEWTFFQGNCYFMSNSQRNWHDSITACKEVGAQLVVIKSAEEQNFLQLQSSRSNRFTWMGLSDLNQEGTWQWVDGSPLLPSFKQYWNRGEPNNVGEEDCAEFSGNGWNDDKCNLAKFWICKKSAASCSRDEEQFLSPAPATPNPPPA
substance,measurement,setting,value
ADD KGE RBD (ADD-KGE/RBD-SC covalent complex) (from UniProt Q2Y0H9 1-544; P0DTC2 320-554),Kd,[1],0.00034 µM
same,Kd,[2],0.0661 µM
